Read-outs that look alike come from different tables or passages of the source.
Legend:
[1] = molecular target: CXCR4 on THP-1 cells (human (endogenous in THP-1)) (UniProt P61073)
[2] = molecular target: CXCR4 on THP-1 cells (human (endogenous in THP-1)) (UniProt P61073); remark: listed apart in the source

CXCR4 on THP-1 cells (human (endogenous in THP-1)), sequence (P61073 whole entry): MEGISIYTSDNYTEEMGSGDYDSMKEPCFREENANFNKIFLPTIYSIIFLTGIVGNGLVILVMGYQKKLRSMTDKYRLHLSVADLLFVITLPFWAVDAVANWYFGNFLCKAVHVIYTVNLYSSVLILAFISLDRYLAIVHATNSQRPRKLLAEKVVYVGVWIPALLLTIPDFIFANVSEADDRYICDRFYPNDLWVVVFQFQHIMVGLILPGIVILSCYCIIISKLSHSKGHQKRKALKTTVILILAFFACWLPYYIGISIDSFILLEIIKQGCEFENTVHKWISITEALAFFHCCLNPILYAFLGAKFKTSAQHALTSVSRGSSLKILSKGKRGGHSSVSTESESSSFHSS
SDF-1 Lys27Glu, sequence (P48061 22-93 K48E): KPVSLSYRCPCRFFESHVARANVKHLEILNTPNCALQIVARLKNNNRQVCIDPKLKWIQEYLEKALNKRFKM
SDF-1 Val39Ala, sequence (P48061 22-93 V39A): as the sequence (P48061 22-93 K48E) above, with V18A, E27K counted along it
SDF-1 Arg47Glu, sequence (P48061 22-93 R68E): as the sequence (P48061 22-93 K48E) above, with E27K, R47E counted along it
SDF-1 Glu60Ala, sequence (P48061 22-93 E81A): as the sequence (P48061 22-93 K48E) above, with E27K, E60A counted along it
SDF-1 Arg47Ala, sequence (P48061 22-93 R68A): as the sequence (P48061 22-93 K48E) above, with E27K, R47A counted along it
SDF-1 Val49Ala, sequence (P48061 22-93 V70A): as the sequence (P48061 22-93 K48E) above, with E27K, V49A counted along it
SDF-1 Lys27Ala, sequence (P48061 22-93 K48A): as the sequence (P48061 22-93 K48E) above, with E27A counted along it
SDF-1 Glu63Ala, sequence (P48061 22-93 E84A): as the sequence (P48061 22-93 K48E) above, with E27K, E63A counted along it
SDF-1 Lys64Ala, sequence (P48061 22-93 K64A): as the sequence (P48061 22-93 K48E) above, with E27K, K43A counted along it

| Substance | EC50 of Ca2+ mobilization in THP-1 cells [1] | EC50 of Ca2+ mobilization in THP-1 cells [2] |
| --- | --- | --- |
| SDF-1 Arg20Ala (from UniProt P48061 22-93) (ligand) | 4.3 nM |  |
| SDF-1 Arg47Glu (from UniProt P48061 22-93) (ligand) | 654 nM |  |
| SDF-1 Val49Ala (from UniProt P48061 22-93) (ligand) | 8.6 nM |  |
| SDF-1 Arg41Ala (from UniProt P48061 22-93) (ligand) | 4.3 nM |  |
| SDF-1 Glu60Ala (from UniProt P48061 22-93) (ligand) | 4.1 nM |  |
| SDF1(L36C/A65C), covalently-locked symmetric dimer (from UniProt P48061 22-93) (ligand) |  | 12.9 nM |
| SDF1(H25R) (from UniProt P48061 22-93) (ligand) | 5.1 nM |  |
| SDF-1 Val39Ala (from UniProt P48061 22-93) (ligand) | 27.1 nM |  |
| SDF-1 Lys64Ala (from UniProt P48061 22-93) (ligand) | 5 nM |  |

Second part, the substance after the results:

| EC50 of Ca2+ mobilization in THP-1 cells [1] | EC50 of Ca2+ mobilization in THP-1 cells [2] | Substance |
| --- | --- | --- |
| 14.1 nM |  | SDF-1 Arg47Ala (from UniProt P48061 22-93) (ligand) |
| 16.8 nM |  | SDF-1 Lys27Glu (from UniProt P48061 22-93) (ligand) |
| 3.6 nM |  | stromal cell derived factor-1 (SDF-1, also known as CXCL12), wild type (from UniProt P48061 22-93) (ligand) |
| 10.1 nM |  | SDF-1 Lys27Ala (from UniProt P48061 22-93) (ligand) |
| 3.7 nM |  | SDF-1 Glu63Ala (from UniProt P48061 22-93) (ligand) |

From PMC2692298
